Source: PMC8238520 (2021)
Where no end group is shown, it is not given here. [ ]: non-standard residue; d: D form. pS = N[C@@H](COP(=O)(O)O)C(=O)O

B1: 14-3-3ζ dimer (natural protein)
chain: MDKNELVQKAKLAEQAERYDDMAACMKSVTEQGAELSNEERNLLSVAYKNVVGARRSSWRVVSSIEQKTEGAEKKQQMAREYREKIETELRDICNDVLSLLEKFLIPNASQAESKVFYLKMKGDYYRYLAEVAAGDDKKGIVDQSQQAYQEAFEISKKEMQPTHPIRLGLALNFSVFYYEILNSPEKACSLAKTAFDEAIAELDTLSEESYKDSTLIMQLLRDNLTLWTSDTQGDEAEAGEGGEN

Legend:
Test in all cases: FP
[1] = biological target: FAM-tagged PKCε pSer346/pSer350 phosphopeptide (UniProt P16054, phosphoserine at 346; phosphoserine at 350; FAM label (end not stated))
[2] = biological target: FAM-tagged PKCε pSer346 phosphopeptide (UniProt P16054, phosphoserine at 346; FAM label (end not stated))
14-3-3ζ dimer = biological target: B1

Row | Binder | Kd [1] [µM] | Kd [2] [µM] | Kd (14-3-3ζ dimer) [µM]
1 | B1 | 335 | 31.5 | –
2 | DRSK[pS]APT[pS]PCDQEIKELENNIRKAL[pS]FDNR (also: FAM label (end not given here)) [FAM-tagged PKCε pSer346/pSer350/pSer368 phosphopeptide] | – | – | 0.147
3 | DRSK[pS]APTSPCDQEIKELENNIRKAL[pS]FDNR (also: FAM label (end not given here)) [FAM-tagged PKCε pSer346/pSer368 phosphopeptide] | – | – | 0.03
